Earlier results as cited in patent US20230023414A1, “METHODS AND DEVICES FOR TREATING A DISEASE WITH BIOTHERAPEUTICS” (PROGENITY, INC., priority 2018, published 2023).

B1: pegfilgrastim (protein, UniProt P09919 31-207, looked up)
Granulocyte …: TPLGPASSLPQSFLLKCLEQVRKIQGDGAALQEKLVSECATYKLCHPEELVLLGHSLGIPWAPLSSCPSQALQLAGCLSQLHSGLFLYQGLLQALEGISPELGPTLDTLQLDVADFATTIWQQMEELGMAPALQPTQGAMPAFASAFQRRAGGVLVASHLQSFLEVSYRVLRHLAQP
modifications: N-terminal Met, 20 kDa PEG
B2: concizumab (antibody, chains of the INN, looked up, V domains shown)
VH: EVQLVESGGGLVKPGGSLRLSCAASGFTFSNYAMSWVRQTPEKRLEWVATISRSGSYSYFPDSVQGRFTISRDNAKNSLYLQMNSLRAEDTAVYYCARLGGYDEGDAMDSWGQGTTVTVSS
VL: DIVMTQTPLSLSVTPGQPASISCKSSQSLLESDGKTYLNWYLQKPGQSPQLLIYLVSILDSGVPDRFSGSGSGTDFTLKISRVEAEDVGVYYCLQATHFPQTFGGGTKVEIK
B3: evolocumab (antibody, chains of the INN, looked up, V domains shown)
VH: EVQLVQSGAEVKKPGASVKVSCKASGYTLTSYGISWVRQAPGQGLEWMGWVSFYNGNTNYAQKLQGRGTMTTDPSTSTAYMELRSLRSDDTAVYYCARGYGMDVWGQGTTVTVSS
VL: ESALTQPASVSGSPGQSITISCTGTSSDVGGYNSVSWYQQHPGKAPKLMIYEVSNRPSGVSNRFSGSKSGNTASLTISGLQAEDEADYYCNSYTSTSMVFGGGTKLTVL
B4: emicizumab (antibody, chains of the INN, looked up, V domains shown)
VH: QVQLVQSGSELKKPGASVKVSCKASGYTFTDNNMDWVRQAPGQGLEWMGDINTRSGGSIYNEEFQDRVIMTVDKSTDTAYMELSSLRSEDTATYHCARRKSYGYYLDEWGEGTLVTVSS
VL: DIQMTQSPSSLSASVGDRVTITCKASRNIERQLAWYQQKPGQAPELLIYQASRKESGVPDRFSGSRYGTDFTLTISSLQPEDIATYYCQQYSDPPLTFGGGTKVEIK
VH2: QVQLVESGGGLVQPGGSLRLSCAASGFTFSYYDIQWVRQAPGKGLEWVSSISPSGQSTYYRREVKGRFTISRDNSKNTLYLQMNSLRAEDTAVYYCARRTGREYGGGWYFDYWGQGTLVTVSS
VL2: B4 VL

Conditions: SC administration

| Molecule | Approved Dosing Info: Bio Avail [%] | Baseline dose: Bioavail. (dose info for non-approved agents from clinical trial information) [%] |
| --- | --- | --- |
| B1 | 70 | – |
| B2 | – | 93.0 |
| B3 | 82 | – |
| B4 | 85 | – |
